According to publication PMC12624060, “Structures of human organellar SPFH protein complexes” (Nature Communications, 2025):

B1: N-terminally Strep-tagged PHB1 (stable Expi293F line) (natural protein, human)
chain: MAAKVFESIGKFGLALAVAGGVVNSALYNVDAGHRAVIFDRFRGVQDIVVGEGTHFLIPWVQKPIIFDCRSRPRNVPVITGSKDLQNVNITLRILFRPVASQLPRIFTSIGEDYDERVLPSITTEILKSVVARFDAGELITQRELVSRQVSDDLTERAATFGLILDDVSLTHLTFGKEFTEAVEAKQVAQQEAERARFVVEKAEQQKKAAIISAEGDSKAAELIANSLATAGDGLIELRKLEAAEDIAYQLSRSRNITYLPAGQSVLLQLPQ
notes: PHB1 (prohibitin 1), human; cDNA in pHAGE; 11 copies in the 22-subunit PHB1/2 complex; also called prohibitin; source: solubilised membranes (DDM/CHS) and complex purified on StrepTactin; not shown: Strep, N-terminal, kept; copies: 11
B2: N-terminally Strep-tagged Erlin1 (natural protein, human)
chain: MTQARVLVAAVVGLVAVLLYASIHKIEEGHLAVYYRGGALLTSPSGPGYHIMLPFITTFRSVQTTLQTDEVKNVPCGTSGGVMIYIDRIEVVNMLAPYAVFDIVRNYTADYDKTLIFNKIHHELNQFCSAHTLQEVYIELFDQIDENLKQALQKDLNLMAPGLTIQAVRVTKPKIPEAIRRNFELMEAEKTKLLIAAQKQKVVEKEAETERKKAVIEAEKIAQVAKIRFQQKVMEKETEKRISEIEDAAFLAREKAKADAEYYAAHKYATSNKHKLTPEYLELKKYQAIASNSKIYFGSNIPNMFVDSSCALKYSDIRTGRESSLPSKEALEPSGENVIQNKESTG
modifications: N-linked glycan on N108
notes: Erlin1, human; cDNA in pcDNA5; 13 copies in the 26-subunit Erlin1/2 complex as modelled; source: Expi293F, co-transfected with Erlin2-Flag; complex purified (StrepTactin, anti-FLAG M2, Superose 6) in DDM/CHS; not shown: Strep, N-terminal, kept; copies: 13
B3: C-terminally Flag-tagged Erlin2 (natural protein, human)
chain: MAQLGAVVAVASSFFCASLFSAVHKIEEGHIGVYYRGGALLTSTSGPGFHLMLPFITSYKSVQTTLQTDEVKNVPCGTSGGVMIYFDRIEVVNFLVPNAVYDIVKNYTADYDKALIFNKIHHELNQFCSVHTLQEVYIELFDQIDENLKLALQQDLTSMAPGLVIQAVRVTKPNIPEAIRRNYELMESEKTKLLIAAQKQKVVEKEAETERKKALIEAEKVAQVAEITYGQKVMEKETEKKISEIEDAAFLAREKAKADAECYTAMKIAEANKLKLTPEYLQLMKYKAIASNSKIYFGKDIPNMFMDSAGSVSKQFEGLADKLSFGLEDEPLETATKEN
modifications: N-linked glycan on N106
notes: Erlin2, human; cDNA in pcDNA5; 13 copies in the 26-subunit Erlin1/2 complex as modelled; also called Erlin2-Flag; source: Expi293F, co-transfected with Strep-Erlin1; complex purified (StrepTactin, anti-FLAG M2, Superose 6) in DDM/CHS; not shown: Flag, C-terminal, kept; copies: 13

Key:
untagged PHB2 = target: T1, untagged PHB2 (human, UniProt Q99623 1-299); assay: cryo-EM structure; PHB1/2 complex after one-step StrepTactin purification, in 20 mM HEPES/KOH pH 7.4, 50 mM K-phosphate, 150 mM KCl, 5 mM magnesium acetate, 5 mM ATP, DDM/CHS; closed (2.4 Å) and open (3.1 Å) conformations, C11 symmetry; settings: both partners purified
T1 construct: PHB2 (prohibitin 2), human; 11 copies in the 22-subunit PHB1/2 complex; source: complex purified on StrepTactin; copies: 11

[1] = target: the molecule itself; assay: cryo-EM structure; Erlin1/2 complex after tandem affinity purification and SEC, in 50 mM HEPES/KOH pH 7.4, 150 mM NaCl, 0.02% DDM, 0.004% CHS; single-particle map at 3.0 Å, no symmetry applied in the last refinement

T1 sequence (Q99623 whole entry): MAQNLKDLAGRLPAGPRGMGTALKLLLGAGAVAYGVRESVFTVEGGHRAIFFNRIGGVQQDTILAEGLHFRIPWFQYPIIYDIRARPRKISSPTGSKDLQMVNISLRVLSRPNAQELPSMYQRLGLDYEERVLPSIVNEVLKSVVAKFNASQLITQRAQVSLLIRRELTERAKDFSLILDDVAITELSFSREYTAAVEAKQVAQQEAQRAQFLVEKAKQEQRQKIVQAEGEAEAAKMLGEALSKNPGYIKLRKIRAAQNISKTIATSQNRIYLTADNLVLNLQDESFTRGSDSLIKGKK

Binder | stoichiometry N (untagged PHB2) | binding result [1]
B1 | 11 heterodimers in the complex | 
B2 |  | binds
B3 |  | binds
